One block for each binder: values may come before it. Starred links: 1 amine or outer side, 2 acyl side, 3 side chain; linkers in the order of their positions; H or OH if unused. Positions of bridges follow the written chain, without caps; N, C: chain ends. Non-standard residues stand in square brackets, D forms with d. Primed or numbered codes have the meaning given here. *: point of attachment. B5(15) = 2-amino-2-(pent-4-en-1-yl)hept-6-enoic acid (2,2-bis(4-pentenyl)glycine), stitching residue bearing two staples, C=CCCCC(CCCC=C)(N[*:1])C(=O)[*:2]; PyrS2″ = (S)-3-amino-1-((pent-4-en-1-yloxy)carbonyl)pyrrolidine-3-carboxylic acid (stapling residue), C=CCCCOC(=O)N1CC[C@@](N[*:1])(C(=O)[*:2])C1; B5(33) = 2-amino-2-(pent-4-en-1-yl)hept-6-enoic acid (bis-pentenylglycine, two olefin side chains), C=CCCCC(CCCC=C)(N[*:1])C(=O)[*:2]; PyrS2 = (S)-3-amino-1-((pent-4-en-1-yloxy)carbonyl)pyrrolidine-3-carboxylic acid, C=CCCCOC(=O)N1CC[C@@](N[*:1])(C(=O)[*:2])C1; B5(3) = 2,2-bis(4-pentenyl)glycine (stitching residue), C=CCCCC(CCCC=C)(N[*:1])C(=O)[*:2]; Phe(3-COOH) = N[C@@H](Cc1cccc(C(=O)O)c1)C(=O)O; Phe(2-Cl) = N[C@@H](Cc1ccccc1Cl)C(=O)O; Bta = N[C@@H](Cc1csc2ccccc12)C(=O)O; αAllylPro = C=CC[C@@]1(C(=O)O)CCCN1; tBuAla = CC(C)(C)C[C@H](N)C(=O)O; 3Thi = N[C@@H](Cc1ccsc1)C(=O)O; S8 = C=CCCCCCC[C@](C)(N)C(=O)O; Propanoyl(3-OMe) = COCCC(=O)*; PyrS2(4) = not defined here; hSer = N[C@@H](CCO)C(=O)O
Experiments:
B-cat-Halo = target: T1, B-cat-Halo (Homo sapiens (Human), UniProt P35222 1-781); test: cell-based or functional assay
T1 sequence: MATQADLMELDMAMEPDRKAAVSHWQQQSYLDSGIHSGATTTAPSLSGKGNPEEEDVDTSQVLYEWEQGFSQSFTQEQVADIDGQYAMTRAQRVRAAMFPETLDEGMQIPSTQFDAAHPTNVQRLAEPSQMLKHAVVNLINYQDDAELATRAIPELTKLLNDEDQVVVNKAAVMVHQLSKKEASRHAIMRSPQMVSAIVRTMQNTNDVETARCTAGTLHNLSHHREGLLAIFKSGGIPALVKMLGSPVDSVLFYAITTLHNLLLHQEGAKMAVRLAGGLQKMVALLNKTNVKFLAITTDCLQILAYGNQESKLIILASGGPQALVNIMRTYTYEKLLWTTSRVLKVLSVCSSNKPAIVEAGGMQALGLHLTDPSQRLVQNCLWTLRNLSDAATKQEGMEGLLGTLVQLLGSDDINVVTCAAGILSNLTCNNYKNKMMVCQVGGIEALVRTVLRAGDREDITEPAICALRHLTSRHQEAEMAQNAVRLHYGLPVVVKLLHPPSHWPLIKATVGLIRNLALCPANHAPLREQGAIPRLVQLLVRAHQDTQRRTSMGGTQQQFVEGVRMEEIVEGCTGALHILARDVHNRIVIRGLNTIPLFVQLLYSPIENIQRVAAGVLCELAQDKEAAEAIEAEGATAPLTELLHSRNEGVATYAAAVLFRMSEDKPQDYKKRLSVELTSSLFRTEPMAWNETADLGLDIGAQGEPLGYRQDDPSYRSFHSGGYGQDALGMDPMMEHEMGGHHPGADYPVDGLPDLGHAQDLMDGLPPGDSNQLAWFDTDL

[1] = target: T2, B-cat-Halo (beta-catenin HaloTag NanoBRET construct expressed in HEK293 cells) (UniProt P35222 1-781); test: cell-based or functional assay
T2 sequence (looked up): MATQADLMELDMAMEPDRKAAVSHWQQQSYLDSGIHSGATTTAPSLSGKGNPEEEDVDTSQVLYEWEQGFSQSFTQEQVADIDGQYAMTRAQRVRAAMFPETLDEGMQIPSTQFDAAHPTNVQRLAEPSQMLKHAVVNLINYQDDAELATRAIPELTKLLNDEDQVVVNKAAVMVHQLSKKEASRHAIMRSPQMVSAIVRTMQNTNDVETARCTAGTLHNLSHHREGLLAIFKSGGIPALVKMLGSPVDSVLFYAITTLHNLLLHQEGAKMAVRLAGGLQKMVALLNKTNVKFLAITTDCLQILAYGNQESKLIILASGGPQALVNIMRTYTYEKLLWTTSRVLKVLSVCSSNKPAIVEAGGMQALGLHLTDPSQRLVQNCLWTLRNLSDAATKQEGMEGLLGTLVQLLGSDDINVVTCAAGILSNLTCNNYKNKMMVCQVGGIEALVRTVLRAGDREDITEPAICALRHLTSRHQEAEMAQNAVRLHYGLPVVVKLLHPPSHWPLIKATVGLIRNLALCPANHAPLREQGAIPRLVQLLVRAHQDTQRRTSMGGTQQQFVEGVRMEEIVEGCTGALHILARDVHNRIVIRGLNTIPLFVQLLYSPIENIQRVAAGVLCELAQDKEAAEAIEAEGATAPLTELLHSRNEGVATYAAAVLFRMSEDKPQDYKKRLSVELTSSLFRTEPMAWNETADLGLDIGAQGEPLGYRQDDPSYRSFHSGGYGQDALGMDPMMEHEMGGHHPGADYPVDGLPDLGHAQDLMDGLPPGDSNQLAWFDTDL

[2] = target: T3, full-length beta-Catenin (Uniprot ID P35222) (Homo sapiens (Human), UniProt P35222 2-781); test: fluorescence polarization competition; displaces 5FAM-TCF4(10-53) from full-length beta-catenin
T3 construct: full-length; also called bCat; B-Catenin
T3 sequence: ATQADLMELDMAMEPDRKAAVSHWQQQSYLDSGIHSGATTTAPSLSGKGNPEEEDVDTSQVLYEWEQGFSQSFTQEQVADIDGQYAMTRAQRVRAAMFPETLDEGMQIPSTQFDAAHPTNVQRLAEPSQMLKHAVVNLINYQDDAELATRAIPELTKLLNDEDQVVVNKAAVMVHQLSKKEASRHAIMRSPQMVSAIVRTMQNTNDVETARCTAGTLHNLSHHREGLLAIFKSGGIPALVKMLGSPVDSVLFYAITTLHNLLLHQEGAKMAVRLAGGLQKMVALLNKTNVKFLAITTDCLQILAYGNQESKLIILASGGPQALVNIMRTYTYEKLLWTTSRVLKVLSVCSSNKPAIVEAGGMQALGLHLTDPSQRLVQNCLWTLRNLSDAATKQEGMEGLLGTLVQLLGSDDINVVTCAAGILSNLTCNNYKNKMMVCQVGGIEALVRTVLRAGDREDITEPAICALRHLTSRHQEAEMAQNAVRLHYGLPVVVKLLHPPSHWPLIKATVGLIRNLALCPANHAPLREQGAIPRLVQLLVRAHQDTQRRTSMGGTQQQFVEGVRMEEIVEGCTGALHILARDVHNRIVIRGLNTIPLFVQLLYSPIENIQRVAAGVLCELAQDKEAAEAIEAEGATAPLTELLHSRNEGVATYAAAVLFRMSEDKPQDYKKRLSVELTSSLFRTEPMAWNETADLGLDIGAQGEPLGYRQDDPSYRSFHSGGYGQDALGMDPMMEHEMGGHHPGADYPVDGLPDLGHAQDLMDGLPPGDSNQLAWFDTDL
Experimental: The plate was incubated protected from light for 60 minutes at 20° C. prior to read. Reads were performed on a CLARIOstar plate reader (BMG Labtech) in duplicate, and data were fitted to a 1:1 binding model with hill slope using an in-house script. All provided concentrations are final concentrations.

[3] = target: T4, B-cat-Halo (beta-catenin HaloTag NanoBRET construct expressed in HEK293 cells) (Homo sapiens (Human), UniProt P35222 1-781); test: cell-based or functional assay
T4 sequence: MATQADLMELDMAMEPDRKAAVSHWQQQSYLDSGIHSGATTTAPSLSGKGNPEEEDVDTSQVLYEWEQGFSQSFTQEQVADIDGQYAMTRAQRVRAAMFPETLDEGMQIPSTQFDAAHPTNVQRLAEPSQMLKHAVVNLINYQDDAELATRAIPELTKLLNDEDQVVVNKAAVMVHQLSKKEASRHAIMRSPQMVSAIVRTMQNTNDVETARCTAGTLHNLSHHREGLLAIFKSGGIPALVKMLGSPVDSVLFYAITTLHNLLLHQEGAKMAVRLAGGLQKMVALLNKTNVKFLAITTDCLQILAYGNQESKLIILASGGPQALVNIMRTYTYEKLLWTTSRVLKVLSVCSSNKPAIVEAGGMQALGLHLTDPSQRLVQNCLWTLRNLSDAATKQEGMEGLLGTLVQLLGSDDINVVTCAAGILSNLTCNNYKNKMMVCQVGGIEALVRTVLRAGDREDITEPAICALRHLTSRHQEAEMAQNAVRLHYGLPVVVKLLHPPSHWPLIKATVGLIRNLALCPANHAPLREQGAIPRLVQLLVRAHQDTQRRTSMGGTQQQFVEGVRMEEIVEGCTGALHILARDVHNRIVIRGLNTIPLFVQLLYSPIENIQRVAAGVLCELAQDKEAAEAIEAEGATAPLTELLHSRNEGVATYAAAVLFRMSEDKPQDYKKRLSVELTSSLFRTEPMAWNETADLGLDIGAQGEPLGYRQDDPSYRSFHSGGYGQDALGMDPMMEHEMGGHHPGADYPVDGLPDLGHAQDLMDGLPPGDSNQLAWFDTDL

B2: I-1532 (peptide)
peptide: XDNXDEAAFQXFXQ
modifications: not fully specified; N-terminal Ac; PL3 at 1, B5 at 4, S8 at 11 (staples PL3-B5 and B5-S8 by olefin metathesis); BztA at 13; C-terminal NH2
notes: Stapled peptide composition; Same description as I-1531; separate, later eluting HPLC peak (staple isomer); also called Ac-PL3-Asp-Asn-B5-Asp-Glu-Ala-Ala-Phe-Gln-S8-Phe-BztA-Gln-NH2
NanoBRET Abs IC50 [1]: > 20 µM
IC50 [2]: 0.049 µM

B3: I-1534 (peptide)
peptide: Ac-[αAllylPro]DN[B5(15)]DEAAF[hSer][S8]F[Bta]Q-NH2
modifications: staple 1-4, 4-11; not fully specified; printed as Ac-PL3-Asp-Asn-B5-Asp-Glu-Ala-Ala-Phe-Hse-S8-Phe-BztA-Gln-NH2
notes: Stapled peptide composition; Same description as I-1535; earlier eluting HPLC peak (staple isomer); also called Ac-PL3-Asp-Asn-B5-Asp-Glu-Ala-Ala-Phe-Hse-S8-Phe-BztA-Gln-NH2
NanoBRET Abs IC50 [1]: > 20 µM
IC50 [2]: 0.181 µM

B4: I-1533 (peptide)
peptide: Ac-[αAllylPro]DN[B5(15)]DEAAFL[S8]F[Bta]Q-NH2
modifications: staple 1-4, 4-11
notes: Stapled peptide composition; also called Ac-PL3-Asp-Asn-B5-Asp-Glu-Ala-Ala-Phe-Leu-S8-Phe-BztA-Gln-NH2
NanoBRET Abs IC50 [1]: > 20 µM
IC50 [2]: 0.076 µM

Binder: Ac-[αAllylPro]D[tBuAla][B5(33)]DTAAFT[PyrS2]F[Bta]S-NH2 (staple 1-4, 4-11) [I-1263]
NanoBRET Abs IC50 [3]: 20 µM

B5: I-1260 (peptide)
peptide: XDXXDDAAFTXFXQ
modifications: not fully specified; MeSO2-PL3-Asp-Npg-B5-Asp-Asp-Ala-Ala-Phe-Thr-S8-2C1F-BztA-Gln-NH2; stapled by olefin metathesis (PL3-B5 and B5-S8)
NanoBRET Abs IC50 [3]: 24 µM

Binder: {Propanoyl(3-OMe)}-[αAllylPro]D[tBuAla][B5(33)]DDAAFN[PyrS2][Phe(2-Cl)][Bta][dT]-NH2 (staple 1-4, 4-11) [I-1259]
NanoBRET Abs IC50 [3]: 18.1 µM

Results, then the binder that gave them:

NanoBRET Abs IC50 (B-cat-Halo): 11.8 µM
B1: I-2038 (peptide)
peptide: Ac-[αAllylPro]D[tBuAla][B5(3)]D[Phe(3-COOH)]AAFS[PyrS2(4)][Phe(2-Cl)][Bta]N-NH2
modifications: staple 1-4, 4-11; not fully specified; reading uncertain; also: staple isomer, earlier eluting HPLC peak

NanoBRET Abs IC50 (B-cat-Halo): 4.5 µM
Binder: Ac-[αAllylPro]D[tBuAla][B5(3)]D[Phe(3-COOH)]NAFL[PyrS2″][3Thi][Bta]A-NH2 (staple 1-4, 4-11) [I-2049]

NanoBRET Abs IC50 (B-cat-Halo): 5 µM
Binder: Ac-[αAllylPro]D[tBuAla][B5(3)]D[Phe(3-COOH)]AAFF[PyrS2″][Phe(2-Cl)][Bta]N-NH2 (staple 1-4, 4-11) [I-2037]

NanoBRET Abs IC50 (B-cat-Halo): 9.5 µM
Binder: Ac-[αAllylPro]D[tBuAla][B5(3)]D[Phe(3-COOH)]AAFN[PyrS2″][Phe(2-Cl)][Bta]F-NH2 (staple 1-4, 4-11) [I-2033]

NanoBRET Abs IC50 (B-cat-Halo): 13.5 µM
Binder: Ac-[αAllylPro]D[tBuAla][B5(3)]D[Phe(3-COOH)]AAFS[PyrS2″][3Thi][Bta]N-NH2 (staple 1-4, 4-11) [I-2045]

NanoBRET Abs IC50 (B-cat-Halo): 10 µM
Binder: Ac-[αAllylPro]D[tBuAla][B5(3)]D[Phe(3-COOH)]AAFA[PyrS2″][3Thi][Bta]N-NH2 (staple 1-4, 4-11) [I-2042]

NanoBRET Abs IC50 (B-cat-Halo): 4.9 µM
Binder: Ac-[αAllylPro]D[tBuAla][B5(3)]D[Phe(3-COOH)]SAFL[PyrS2″][3Thi][Bta]A-NH2 (staple 1-4, 4-11) [I-2050]

NanoBRET Abs IC50 (B-cat-Halo): 2.8 µM
Binder: Ac-[αAllylPro]D[tBuAla][B5(3)]D[Phe(3-COOH)]AAFL[PyrS2″][Phe(2-Cl)][Bta]NAAA-NH2 (staple 1-4, 4-11) [I-2040]

— US20240116985A1 (published 2024)
